How the values were obtained:
[1] = target: recombinant biotinylated L^d immobilized on avidin-coated sheep red blood cells (mouse) (UniProt P01897); assay: flow cytofluorometry of L^d on avidin-coated SRBC
[2] = target: L^d on transfected Drosophila S2 (fly) cells with QL9 peptide (mouse) (UniProt P01887); assay: cell-based or functional assay
[3] = target: L^d on transfected Drosophila S2 (fly) cells with p2Ca peptide (mouse) (UniProt P01887); assay: cell-based or functional assay
L^d on transfected Drosophila S2 (fly) cells with p2Ca peptide (mouse), sequence (P01897 25-362, chain 1 of 2): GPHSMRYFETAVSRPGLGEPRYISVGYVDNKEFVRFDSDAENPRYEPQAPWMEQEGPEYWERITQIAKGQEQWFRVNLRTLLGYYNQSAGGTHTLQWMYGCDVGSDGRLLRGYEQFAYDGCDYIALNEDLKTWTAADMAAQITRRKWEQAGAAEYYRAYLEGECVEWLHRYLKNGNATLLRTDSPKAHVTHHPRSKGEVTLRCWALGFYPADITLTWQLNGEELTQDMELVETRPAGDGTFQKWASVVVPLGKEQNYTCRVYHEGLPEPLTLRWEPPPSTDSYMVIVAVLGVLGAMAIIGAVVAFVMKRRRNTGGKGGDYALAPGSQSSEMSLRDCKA
L^d on transfected Drosophila S2 (fly) cells with p2Ca peptide (mouse), sequence (P01887 21-119, chain 2 of 2): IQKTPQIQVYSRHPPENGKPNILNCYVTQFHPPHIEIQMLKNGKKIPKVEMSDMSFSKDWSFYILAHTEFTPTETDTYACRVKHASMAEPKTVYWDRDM

L^d on transfected Drosophila S2 (fly) cells with QL9 peptide (mouse), sequence (P01897 25-362, chain 1 of 2): as the sequence (P01897 25-362, chain 1 of 2) above
L^d on transfected Drosophila S2 (fly) cells with QL9 peptide (mouse), sequence (P01887 21-119, chain 2 of 2): as the sequence (P01887 21-119, chain 2 of 2) above
recombinant biotinylated L^d immobilized on avidin-coated sheep red blood cells (mouse), sequence (P01897 25-362): as the sequence (P01897 25-362, chain 1 of 2) above

For monoclonal antibody 30.5.7 (anti-L^d), the percent of cells labeled [1] was 99.8%.
Work on “2C T-cell receptor (TCR), on CD8+ lymph node T cells of 2C TCR transgenic mice” yielded an IL-2 Production (Day 2), ^3HTdR incorporation of CTLL; L^d + B7.1 cells combined with L^d ICAM-1 cells [2] of 500 cpm, an IL-2 Production (Day 2), ^3HTdR incorporation of CTLL; fly cells expressing L^d [2] of 100 cpm and an IL-2 Production (Day 2), ^3HTdR incorporation of CTLL; fly cells expressing L^d + B7.1 [2] of 400 cpm. The IL-2 Production (Day 2), ^3HTdR incorporation of CTLL; fly cells expressing L^d + B7.1 + ICAM-1 [2] was 159000 cpm, the IL-2 Production (Day 2), ^3HTdR incorporation of CTLL; fly cells expressing L^d + ICAM-1 [2] was 200 cpm and the Proliferation (Day 3), ^3HTdR incorporation; L^d + B7.1 cells combined with L^d ICAM-1 cells [2] was 133000 cpm. It also gave a Proliferation (Day 3), ^3HTdR incorporation; fly cells expressing L^d [2] of 200 cpm, a Proliferation (Day 3), ^3HTdR incorporation; fly cells expressing L^d + B7.1 [2] of 60900 cpm and a Proliferation (Day 3), ^3HTdR incorporation; fly cells expressing L^d + B7.1 + ICAM-1 [2] of 264000 cpm. It also gave a Proliferation (Day 3), ^3HTdR incorporation; fly cells expressing L^d + ICAM-1 [2] of 73900 cpm, an IL-2 Production (Day 2), ^3HTdR incorporation of CTLL; L^d + B7.1 cells combined with L^d ICAM-1 cells [3] of 300 cpm and an IL-2 Production (Day 2), ^3HTdR incorporation of CTLL; fly cells expressing L^d [3] of 200 cpm. For the same substance, the IL-2 Production (Day 2), ^3HTdR incorporation of CTLL; fly cells expressing L^d + B7.1 [3] was 200 cpm, the IL-2 Production (Day 2), ^3HTdR incorporation of CTLL; fly cells expressing L^d + B7.1 + ICAM-1 [3] was 64600 cpm and the IL-2 Production (Day 2), ^3HTdR incorporation of CTLL; fly cells expressing L^d + ICAM-1 [3] was 100 cpm. For the same substance, the Proliferation (Day 3), ^3HTdR incorporation; L^d + B7.1 cells combined with L^d ICAM-1 cells [3] was 1500 cpm, the Proliferation (Day 3), ^3HTdR incorporation; fly cells expressing L^d [3] was 200 cpm and the Proliferation (Day 3), ^3HTdR incorporation; fly cells expressing L^d + B7.1 [3] was 300 cpm. For the same substance, the Proliferation (Day 3), ^3HTdR incorporation; fly cells expressing L^d + B7.1 + ICAM-1 [3] was 142000 cpm and the Proliferation (Day 3), ^3HTdR incorporation; fly cells expressing L^d + ICAM-1 [3] was 1500 cpm.

Reference: patent US20030077318A1
